Values quoted from earlier work, collected in article PMC2766628.

Biological target: PEP 3BP1 element (UniProt Q9Y2R2)
UniProt Q9Y2R2, sequence (Q9Y2R2 605-629): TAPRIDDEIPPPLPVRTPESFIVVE

- Kd: 800 nM
Substance: Csk SH3 (from UniProt P41240)
